How the values were obtained:
[1] = test system: Botrytis cinerea isolate (B05.10); assay: Detached leaf assay (tomato leaflets, lesion size); assay type: in vivo; conditions: five days post inoculation, vs untreated inoculated control
Method in brief: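 Tomato (Brandywine) detached lateral leaflets were sprayed with treatment in 0.03% Silwet L-77 24 h before inoculation. Two 10 μL drops of 1×10^5 conidia/mL in 7% grape juice were applied per leaflet, which was then incubated at 23 °C, ~75% RH, 12/12 light. Lesion diameter was measured at 5 DPI against the untreated inoculated control, ten replicates.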

[2] = test system: B. cinerea; assay: Open-air field trial on snap bean (Example 4.3, AUDPC of % disease severity); assay type: in vivo, Botrytis cinerea; conditions: Switch 525 g ai/ha, GS349 20 and 40, GS2280 10 and 40, GS2303 10, 20 and 40, GS2297 20 g ai/ha, FIG. 9
Procedure: RNAi compositions, each containing a dsRNA comprising a trigger sequence (GS349, GS2280, GS2303, or GS2297) described herein were evaluated for ability to control botrytis on snap bean in open-air filed trials. All test samples were formulated with RO water, propylene glycol, a linear alcohol ethoxylate, a lignosulfanate, sodium citrate dihydate, a polyacrylic acid polymer, two biocide compositions, anhydrous citric acid, and an antifoam, all of which are readily commercially available. Formulation samples were tank mixed with a standard adjuvant, the non-ionic surfactant, Activator 90 0.125%v/v. Compositions were tested at concentrations of 10, g ai/ha, 20 g ai/ha, and 40 g ai/ha. Positive controls were a chemical standard, Switch 525 g ai/ha and a biological standard, Double Nickel LC 9.4 I/ha, both of which were also tank mixed with Activator 90 0.125% v/v. As above, an untreated check was used as a negative control.
Compositions were applied to snap bean plants using a small plot sprayer delivering 50 gallons of water per acre. A total of three applications were used for each sample and positive control. Disease state was evaluated beginning 8 days after the first application and ending 37 days after the third and final application. Percent Disease Severity was assessed and AUDPC was calculated in the same manner as noted in Example 4.1.

Molecule	Average % Reduction in Lesion Size ([1]; 30 ppm) [%]	Average % Reduction in Lesion Size ([1]; 50 ppm) [%]	Disease state compared to treatment with the chemical standard (AUDPC) [2]
GS730: dsRNA trigger targeting B. cinerea Bcsec15 (XM_024692064.1); trigger SEQ ID NO 19, RNA 31, reverse complement 43 (nucleic acid, listed as Botrytis cinerea) sense: UCAACGCAGUCUCCAAAGCUUUGGAUGAAUUCGAUAACCCGGAUGUUAUUCUGCAAACCAAGAAUGUGAUAGCAUUGUUCAUCCAAACAAUGGAGGGUUGGGGAUAUUCAGUUGCCAUAUUAGAUGCUUAUGUGCUUAAGCUUUUCUAUAGAUAUGCUGAUUUGUUAAAACGGAAAUUCAGCACAGAUUUUCAACAGAUUGUGUCUACCGAUGAAUACAUGCCUAUGCCUGUCAAUAGCGAAGAAGACUUUGAUAAAAUCAUUCAAGUCAGUUGGUAUGUUCCGGACAGACCGAAAGAAGAAUACACAUUCCCCGGUGUAUUACCAUUCUCCCAGAUGUACCCAAUGUGCUGUAUAGAUAUCAGAAAUUUCCUGAAUCGAUUCUACUUCAUAAUGGAUGAUCAUUUUCAACAGCCAAACAUUAUUGAUGAGACACUUAAGAAGUCGAUAGAUGAGCUUCUGUCUGAGGAUAUUUGUGA antisense: UCACAAAUAUCCUCAGACAGAAGCUCAUCUAUCGACUUCUUAAGUGUCUCAUCAAUAAUGUUUGGCUGUUGAAAAUGAUCAUCCAUUAUGAAGUAGAAUCGAUUCAGGAAAUUUCUGAUAUCUAUACAGCACAUUGGGUACAUCUGGGAGAAUGGUAAUACACCGGGGAAUGUGUAUUCUUCUUUCGGUCUGUCCGGAACAUACCAACUGACUUGAAUGAUUUUAUCAAAGUCUUCUUCGCUAUUGACAGGCAUAGGCAUGUAUUCAUCGGUAGACACAAUCUGUUGAAAAUCUGUGCUGAAUUUCCGUUUUAACAAAUCAGCAUAUCUAUAGAAAAGCUUAAGCACAUAAGCAUCUAAUAUGGCAACUGAAUAUCCCCAACCCUCCAUUGUUUGGAUGAACAAUGCUAUCACAUUCUUGGUUUGCAGAAUAACAUCCGGGUUAUCGAAUUCAUCCAAAGCUUUGGAGACUGCGUUGA	16.38	25.11	–
GS2303: dsRNA trigger targeting B. cinerea Bcded1 (XM_001550339.2); trigger SEQ ID NO 24, RNA 36, reverse complement 48 (nucleic acid, listed as Botrytis cinerea) sense: GGGCUAUAUAAGCUUUCAUCUAGGUUUUCCAAGAAACGCAUUACGAUAGACAUGUUCUCCAAAAAUCUUACUGGUCCUGCUUUCAGCAUUUCCAUGGAUCAUGAAGUCCUCCACUAUGGAAGAUUUGCAAAAUAUUUUCGACAUUGCAUUUUGCUGCAUUUCGCAUUUCUAGAUAGAAAAAAAGUGGGAUUCAUAUUCUCGAUAUUUUCUUCGUUGUCUUUUAUUCACAAGACACAUGGCAAGGGAGGAUACCAUUUGAGAGCUUGAAUUGAAGGCUUUCCUCUUACUUUUUUUAUUUUUCACAUCAUCUACGAGUGGGCGUCUUUUACGAUCAAAUCGAUAUACGACAGUGGCACAAAAUAGAAUAGGCAUUUCUCUUCUUAAAAAAGAUUUAAGGGAAGAGUUGGUGCUUGUUCUCUAUAACGCUGAUGGCAUUCGGAAGUGCUCCUGUCCAUUCAGGCUGAGACUGAGACCCAAAAUGUUGGCAGGUACGGCAGAAAGAAGUCUGCUUCAUAUGAUUGAUGGAGGAAGAAAGAAAUAUGGAAUGCGAUGGAUGAGUAAUUACUUUAAAUGAAUAUGAAAA antisense: UUUUCAUAUUCAUUUAAAGUAAUUACUCAUCCAUCGCAUUCCAUAUUUCUUUCUUCCUCCAUCAAUCAUAUGAAGCAGACUUCUUUCUGCCGUACCUGCCAACAUUUUGGGUCUCAGUCUCAGCCUGAAUGGACAGGAGCACUUCCGAAUGCCAUCAGCGUUAUAGAGAACAAGCACCAACUCUUCCCUUAAAUCUUUUUUAAGAAGAGAAAUGCCUAUUCUAUUUUGUGCCACUGUCGUAUAUCGAUUUGAUCGUAAAAGACGCCCACUCGUAGAUGAUGUGAAAAAUAAAAAAAGUAAGAGGAAAGCCUUCAAUUCAAGCUCUCAAAUGGUAUCCUCCCUUGCCAUGUGUCUUGUGAAUAAAAGACAACGAAGAAAAUAUCGAGAAUAUGAAUCCCACUUUUUUUCUAUCUAGAAAUGCGAAAUGCAGCAAAAUGCAAUGUCGAAAAUAUUUUGCAAAUCUUCCAUAGUGGAGGACUUCAUGAUCCAUGGAAAUGCUGAAAGCAGGACCAGUAAGAUUUUUGGAGAACAUGUCUAUCGUAAUGCGUUUCUUGGAAAACCUAGAUGAAAGCUUAUAUAGCCC	43.06	26.55	no significant difference
GS2280: dsRNA trigger targeting B. cinerea Bcmcm4 (XM_024696090.1); trigger SEQ ID NO 21, RNA 33, reverse complement 45 (nucleic acid, listed as Botrytis cinerea) sense: AAUGUCCUCGUCCGGUUUGUAAAUCUCCAAACUCCAUGCAGAUUGUACACAACAGGUCUGGAUUCAUGGAUAAGCAAGUUAUCAAGCUUCAAGAAACUCCAGAUUCCGUUCCUGCUGGUCAAACACCACAUUCCGUCUCGAUGUGUGCAUAUGAUGAGUUGGUGGAUCUGUGCAAAGCUGGUGACAGAGUUGAGAUUACUGGUAUCUUCAAAGCUAGUCCAGUUCGUGUCAAUCCUCGCCAAAGAACUCUCAAAAGCAUUUAUAAAACGUACAUCGACGUUUUACACAUUCAAAAGGUUGACAAGAAAAGAAUGGGAAUUGAUGCUUCGACCGUUGAGCAAGAAAUAUCCGAUCAGUUGACAGGCAACAUUGAAGAAACUAGAAAGGUUUCUGAAGAGGAGGAAGAAAAAAUCAGAGAAACCGCUGCAAGACCCGAUAUCUACGAACUUCUAUCUCGAUCCCUCGCACCUAGUAUUUUUGAGAUGGACGAUGUUAAGAAGGGUAUCUUGCUUCAAUUAUUUGGUGGAACUAACAAGUCUUUCGAAAAAGGAGGAAGUCCAAAAUACAGAGGAGAUAUCAAUAUUCUAUUGU antisense: ACAAUAGAAUAUUGAUAUCUCCUCUGUAUUUUGGACUUCCUCCUUUUUCGAAAGACUUGUUAGUUCCACCAAAUAAUUGAAGCAAGAUACCCUUCUUAACAUCGUCCAUCUCAAAAAUACUAGGUGCGAGGGAUCGAGAUAGAAGUUCGUAGAUAUCGGGUCUUGCAGCGGUUUCUCUGAUUUUUUCUUCCUCCUCUUCAGAAACCUUUCUAGUUUCUUCAAUGUUGCCUGUCAACUGAUCGGAUAUUUCUUGCUCAACGGUCGAAGCAUCAAUUCCCAUUCUUUUCUUGUCAACCUUUUGAAUGUGUAAAACGUCGAUGUACGUUUUAUAAAUGCUUUUGAGAGUUCUUUGGCGAGGAUUGACACGAACUGGACUAGCUUUGAAGAUACCAGUAAUCUCAACUCUGUCACCAGCUUUGCACAGAUCCACCAACUCAUCAUAUGCACACAUCGAGACGGAAUGUGGUGUUUGACCAGCAGGAACGGAAUCUGGAGUUUCUUGAAGCUUGAUAACUUGCUUAUCCAUGAAUCCAGACCUGUUGUGUACAAUCUGCAUGGAGUUUGGAGAUUUACAAACCGGACGAGGACAUU	32.13	24.08	no significant difference
GS349: dsRNA trigger targeting B. cinerea CDC42 (XM_001545642.2); trigger SEQ ID NO 14, RNA 26, reverse complement 38 (nucleic acid, listed as Botrytis cinerea) sense: GUUGUCUUGUCUCGCUCAAGCUUGUCCUGUCUGGUCACUUUUCUUUCUGCCUGAUAAUCCAGACCUCGAAAAUAACCAAAAGAUUGGAAAUCGUUUGCUCAUCUUGCAUGCAUUAUUACUUUCCUGGAUCAAUCUCAUUCAACUCGUUCUCGUGCAUUUCAUUCAACCUCAACCCCUACUUUCAGUCAAUUCAAUUUAAUUCAAUCAUUCAAAUCUUUCAUUUCGCACACUUCACAUUCAACCAUCCUCUCUCAAUCAAAUAUCACCACCUCUCUUAUCGAACGUCAUUUUGCAUACAAUCAAUUCCUACAGACCGAGCGCAACUCGAUACAACCAUCGAAUAACUUCUCACACUUGCUUGUUGAAUUGAUUACUGAAGAAAGUGGAUUUCAAAGACCGAUUUUCCCCCUAGAUAUUCAAGAACGGCUUAUUCUUGUCUCGAGACAAAAC antisense: GUUUUGUCUCGAGACAAGAAUAAGCCGUUCUUGAAUAUCUAGGGGGAAAAUCGGUCUUUGAAAUCCACUUUCUUCAGUAAUCAAUUCAACAAGCAAGUGUGAGAAGUUAUUCGAUGGUUGUAUCGAGUUGCGCUCGGUCUGUAGGAAUUGAUUGUAUGCAAAAUGACGUUCGAUAAGAGAGGUGGUGAUAUUUGAUUGAGAGAGGAUGGUUGAAUGUGAAGUGUGCGAAAUGAAAGAUUUGAAUGAUUGAAUUAAAUUGAAUUGACUGAAAGUAGGGGUUGAGGUUGAAUGAAAUGCACGAGAACGAGUUGAAUGAGAUUGAUCCAGGAAAGUAAUAAUGCAUGCAAGAUGAGCAAACGAUUUCCAAUCUUUUGGUUAUUUUCGAGGUCUGGAUUAUCAGGCAGAAAGAAAAGUGACCAGACAGGACAAGCUUGAGCGAGACAAGACAAC	32.99	31.80	no significant difference

From US20230189818A1, “RNA-BASED CONTROL OF BOTRYTIS” (priority 2021, published 2023)
